B6: CrkII NSH3 domain (CrkII^NSH3) (domain or fragment)
chain: AEYVRALFDFNGNDEEDLPFKKGDILRIRDKPEEQWWNAEDSEGKRGMIPVPYVEKYR
B11: PEAK3^tandem peptide, non-phosphorylated (residues 54-74) (peptide)
peptide: Ac-PLPPPLPKKILTRTQSLPTRR-NH2

Square brackets hold non-standard residues; d marks the D form. pT = C[C@@H](OP(=O)(O)O)[C@H](N)C(=O)O; pS = N[C@@H](COP(=O)(O)O)C(=O)O

The series “SEC-MALS” concerns the molecule itself. As to the kind of experiment: SEC-MALS.
For another series, the target named is T1, human 14-3-3ε (human, UniProt P62258-1 1-255).
T1 sequence: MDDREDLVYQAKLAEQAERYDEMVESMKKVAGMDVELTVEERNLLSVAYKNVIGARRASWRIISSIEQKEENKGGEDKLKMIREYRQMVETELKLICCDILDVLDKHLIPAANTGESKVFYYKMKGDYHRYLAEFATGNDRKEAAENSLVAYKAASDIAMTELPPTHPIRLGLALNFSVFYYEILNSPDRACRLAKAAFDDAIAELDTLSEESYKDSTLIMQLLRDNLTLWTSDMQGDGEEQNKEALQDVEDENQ
As to the kind of experiment: SPR.

Series [1] has as its target B6. As to the kind of experiment: SPR.
Series [2] addresses B11. Description: ITC.
Series [3] deals with the molecule itself. Description: SEC.
Series [4] concerns the molecule itself. As to the kind of experiment: SEC. This is another data set of the same source.

Here are results for 14 molecules from paper doi:10.1101/2022.09.01.506260 (bioRxiv, 2022).

B1: full length recombinant PEAK3 (PEAK3^FL) from insect cells (natural protein)
chain: MSSPEPPTEPPEPDNPTWSTQPTYSNLGQIRAHLLPSKACRLRTPGSLSTNPEPLPPPLPKKILTRTQSLPTRRTLHPSSIQVQPPRRPFLGSHSVDKSQAAVGPACLPAELTFGPADAPLGLSLRDLHSPEAVHTALAARQLQGLRTIYARLRARLMGGHPGPCHPGHSFRLLDSSPCAESGDALYYRVVRAHEDAWHILVAKVPKPGADVPHPWGLELQASLSPHFNLQGLCGLVPEGTLPGAPWRGAVALAAEVPERTVAQWLAEACTQPPEEFVWAVALLLLQLSAALKFLEAWGAALVELRPENLLLVAPRGCATTGPPRLLLTDFGRVCLQPPGPPGSPGPHAPQLGSLLRALLSLAAPSTTPLAAGLELLAAQLTRLRPSASRTRGALQALLWGPGPELRGRGAPLGPWLRALGPWLRVRRGLLVLRLAERAAGGEAPSLEDWLCCEYLAEATESSMGQALALLWD
modifications: phosphoserine at 69 (pS69)
On to B1, for which the “stoichiometry N” value in “SEC-MALS” came out at 2.

B2: PEAK1^tandem-pT1165 phosphopeptide (residues 1152-1171) (peptide)
peptide: Ac-PPPLPKKMIIRAN[pT]EPISKD-NH2
Consider B2, for which the binding result in the series with human 14-3-3ε is given as “binds”.

B3: PEAK3 54-66 proline-rich motif peptide (peptide)
peptide: Ac-PLPPPLPKKILTR-NH2
Consider B3, for which the binding result in series [1] was “binds”.

B4: PEAK2^tandem-pS826 phosphopeptide (residues 812-831) (peptide)
peptide: Ac-PPPLPQKKIVSRAA[pS]SPDGF-NH2
Regarding B4, the binding result in the series with human 14-3-3ε was “binds”.

B5: PEAK3^tandem-pS69 phosphopeptide (residues 54-74) (peptide)
peptide: Ac-PLPPPLPKKILTRTQ[pS]LPTRR-NH2
Take B5: in the series with human 14-3-3ε, the binding result is “binds”. Take B6: in series [2], the “KD after pre-saturating the peptide with 14-3-3ɣ” value worked out at 700 nM.

B7: PEAK2 709-721 proline-rich motif peptide (peptide)
peptide: Ac-FSPPPPPPKSRHL-NH2
Consider B7, for which, in series [1], the Kd turned out to be 13000 nM.

B8: CrkII SH2 domain (CrkII^SH2) (domain or fragment)
chain: DSEERSSWYWGRLSRQEAVALLQGQRHGVFLVRDSSTSPGDYVLSVSENSRVSHYIINSSGPRPPVPPSPAQPPPGVSPSRLRIGDQEFDSLPALLEFYKIHYLDTTTLIEPVSR
As for B8, in the series “SEC [3]”, the “stoichiometry N” value amounted to 2.

B9: CrkII SH2-NSH3 construct lacking the CSH3 domain (CrkII^ΔCSH3) (domain or fragment)
chain: MAGNFDSEERSSWYWGRLSRQEAVALLQGQRHGVFLVRDSSTSPGDYVLSVSENSRVSHYIINSSGPRPPVPPSPAQPPPGVSPSRLRIGDQEFDSLPALLEFYKIHYLDTTTLIEPVSRSRQGSGVILRQEEAEYVRALFDFNGNDEEDLPFKKGDILRIRDKPEEQWWNAEDSEGKRGMIPVPYVEKYRPASASVSALIGGNQEGSHPQPLGGPEPGPYAQPSVNT
Turning to B9, the “stoichiometry N” value in the series “SEC [3]” came to 2.

B10: PEAK2^IDR1 (N-terminally truncated PEAK2, residues 802-1406) (domain or fragment)
chain: EDVSPSGPQQPPPLPQKKIVSRAASSPDGFFWTQGSPKPGTASPKLNLSHSETNVHDESHFSYSLSPGNRHHPVFSSSDPLEKAFKGSGHWLPAAGLAGNRGGCGSPGLQCKGAPSASSSQLSVSSQASTGSTQLQLHGLLSNISSKEGTYAKLGGLYTQSLARLVAKCEDLFMGGQKKELHFNENNWSLFKLTCNKPCCDSGDAIYYCATCSEDPGSTYAVKICKAPEPKTVSYCSPSVPVHFNIQQDCGHFVASVPSSMLSSPDAPKDPVPALPTHPPAQEQDCVVVITREVPHQTASDFVRDSAASHQAEPEAYERRVCFLLLQLCNGLEHLKEHGIIHRDLCLENLLLVHCTLQAGPGPAPAPAPAPAPAAAAPPCSSAAPPAGGTLSPAAGPASPEGPREKQLPRLIISNFLKAKQKPGGTPNLQQKKSQARLAPEIVSASQYRKFDEFQTGILIYELLHQPNPFEVRAQLRERDYRQEDLPPLPALSLYSPGLQQLAHLLLEADPIKRIRIGEAKRVLQCLLWGPRRELVQQPGTSEEALCGTLHNWIDMKRALMMMKFAEKAVDRRRGVELEDWLCCQYLASAEPGALLQSLKLLQLL
modifications: phosphorylation of the tandem site 14-3-3 motif (RAASSP, first S of SS underlined) found by proteomic analysis
As for B10, the “stoichiometry N” value in the series “SEC [4]” turned out to be 2. Molecule B11 yielded a Kd in series [1] of 600 nM.

B12: PEAK1 1150-1162 proline-rich motif peptide (peptide)
peptide: Ac-PTPPPLPKKMIIR-NH2
Take B12: in series [1], the binding result is given as “binds”.

B13: PEAK2 809-821 proline-rich motif peptide (peptide)
peptide: Ac-QPPPLPQKKIVSR-NH2
Turning to B13, the binding result in series [1] is given as “binds”.

B14: PEAK1^IDR1 (N-terminally truncated PEAK1, residues 1082-1746) (domain or fragment)
chain: LPELEREDGKEDISDPMDPNPCSATYSNLGQSRAAMIPPKQPRQPKGAVDDAIAFGGKTDQEAPNASQPTPPPLPKKMIIRANTEPISKDLQKSMESSLCVMANPTYDIDPNWDASSAGSSISYELKGLDIESYDSLERPLRKERPVPSAANSISSLTTLSIKDRFSNSMESLSSRRGPSCRQGRGIQKPQRQALYRGLENREEVVGKIRSLHTDALKKLAVKCEDLFMAGQKDQLRFGVDSWSDFRLTSDKPCCEAGDAVYYTASYAKDPLNNYAVKICKSKAKESQQYYHSLAVRQSLAVHFNIQQDCGHFLAEVPNRLLPWEDPDDPEKDEDDMEETEEDAKGETDGKNPKPCSEAASSQKENQGVMSKKQRSHVVVITREVPCLTVADFVRDSLAQHGKSPDLYERQVCLLLLQLCSGLEHLKPYHVTHCDLRLENLLLVHYQPGGTAQGFGPAEPSPTSSYPTRLIVSNFSQAKQKSHLVDPEILRDQSRLAPEIITATQYKKCDEFQTGILIYEMLHLPNPFDENPELKEREYTRADLPRIPFRSPYSRGLQQLASCLLNPNPSERILISDAKGILQCLLWGPREDLFQTFTACPSLVQRNTLLQNWLDIKRTLLMIKFAEKSLDREGGISLEDWLCAQYLAFATTDSLSCIVKILQHR
B14: in the series “SEC [4]”, the “stoichiometry N” value came out at 2.
